Test results published in article PMC10244946.
Read-outs that look alike come from different tables or passages of the source.

Assays:
[1] = molecular target: HER2 on HER2-expressing BT474 and SKOV-3 cells (human (endogenous in BT474 and SKOV-3)) (UniProt P04626); assay: radioligand binding
[2] = molecular target: HER2 (antigen of the Lindmo immunoreactive fraction assay; form not told); assay: Lindmo assay
[3] = molecular target: HER2 on HER2-expressing BT474 and SKOV-3 cells (human (endogenous in BT474 and SKOV-3)) (UniProt P04626); assay: radioligand binding; remark: listed apart in the source

Row | Substance | percent associated with cells after 1 h at 4 °C [1] [%] | immunoreactive fraction [2] [%] | Kd [1] [nM] | percent of input activity bound to cells after 1 h at 4 °C [1] [%] | Kd [3] [nM]
1 | [^177Lu]Lu-DOTA-PODS-5F7GGC (VHH) | – | 71.2 | – | – | –
2 | iso-[^211At]AGMB-PODS-5F7GGC (VHH) | – | 85.8 | – | 7.5 | –

More lines, now with the values ahead:

Row | percent associated with cells after 1 h at 4 °C [1] [%] | immunoreactive fraction [2] [%] | Kd [1] [nM] | percent of input activity bound to cells after 1 h at 4 °C [1] [%] | Kd [3] [nM] | Substance
3 | 5.8 | – | – | – | – | [^125I]MEGMIB-5F7GGC (VHH)
4 | – | 69 | 3.4 | – | – | [^211At]MEAGMB-5F7GGC (VHH)
5 | – | 84 | 5.9 | 7.4 | 3.3 | iso-[^131I]GMIB-PODS-5F7GGC (VHH)
